This passage reports activity results from patent US20250313864, “TYPE V CAS PROTEINS AND APPLICATIONS THEREOF” (Alia Therapeutics Srl, published 2025).

Common to all, as to test: cell_activity; PAM TTTA; U2OS; with at least one of g1/g2, which one not given
Holding throughout (conditions): tags: V5 tag, C-terminal NLS; hairpin

In one data set the target is T1, ZJHK Type V-A Cas (unidentified).
T1 chain: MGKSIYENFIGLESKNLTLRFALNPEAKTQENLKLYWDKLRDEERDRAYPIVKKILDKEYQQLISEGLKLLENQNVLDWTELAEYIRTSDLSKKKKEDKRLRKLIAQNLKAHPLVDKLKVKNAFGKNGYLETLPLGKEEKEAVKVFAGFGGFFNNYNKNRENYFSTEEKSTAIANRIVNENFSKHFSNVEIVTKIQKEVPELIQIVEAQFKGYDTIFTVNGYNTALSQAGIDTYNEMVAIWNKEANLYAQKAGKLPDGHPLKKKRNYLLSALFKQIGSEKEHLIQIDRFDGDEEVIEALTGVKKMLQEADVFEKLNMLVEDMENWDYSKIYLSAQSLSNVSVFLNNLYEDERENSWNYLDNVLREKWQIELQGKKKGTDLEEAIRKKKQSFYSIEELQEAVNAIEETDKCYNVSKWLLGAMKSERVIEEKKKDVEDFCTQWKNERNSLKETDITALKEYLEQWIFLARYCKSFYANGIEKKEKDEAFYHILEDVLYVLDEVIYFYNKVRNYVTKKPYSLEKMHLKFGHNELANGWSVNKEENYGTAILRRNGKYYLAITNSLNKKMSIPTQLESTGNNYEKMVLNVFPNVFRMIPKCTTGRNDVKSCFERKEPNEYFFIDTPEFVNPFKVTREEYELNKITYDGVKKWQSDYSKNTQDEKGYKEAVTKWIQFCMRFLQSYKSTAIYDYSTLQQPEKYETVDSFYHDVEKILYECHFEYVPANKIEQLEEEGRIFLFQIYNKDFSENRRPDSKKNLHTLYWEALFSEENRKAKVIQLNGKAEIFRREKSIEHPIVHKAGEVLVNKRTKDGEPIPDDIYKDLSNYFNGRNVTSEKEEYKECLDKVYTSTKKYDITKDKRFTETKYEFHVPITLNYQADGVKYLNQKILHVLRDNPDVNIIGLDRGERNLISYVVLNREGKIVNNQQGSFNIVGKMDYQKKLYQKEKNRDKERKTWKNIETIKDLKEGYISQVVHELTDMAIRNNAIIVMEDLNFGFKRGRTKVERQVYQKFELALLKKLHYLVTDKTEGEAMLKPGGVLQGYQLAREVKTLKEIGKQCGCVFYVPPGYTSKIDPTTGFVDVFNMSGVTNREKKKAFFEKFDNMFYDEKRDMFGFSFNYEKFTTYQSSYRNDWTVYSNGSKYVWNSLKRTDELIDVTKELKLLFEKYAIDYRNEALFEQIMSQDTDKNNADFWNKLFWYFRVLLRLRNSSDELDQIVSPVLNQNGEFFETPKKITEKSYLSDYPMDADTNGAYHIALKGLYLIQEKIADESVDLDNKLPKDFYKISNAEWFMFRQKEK

The next data set has as its target T2, ZZGY Type V-A Cas (unidentified).
T2 chain: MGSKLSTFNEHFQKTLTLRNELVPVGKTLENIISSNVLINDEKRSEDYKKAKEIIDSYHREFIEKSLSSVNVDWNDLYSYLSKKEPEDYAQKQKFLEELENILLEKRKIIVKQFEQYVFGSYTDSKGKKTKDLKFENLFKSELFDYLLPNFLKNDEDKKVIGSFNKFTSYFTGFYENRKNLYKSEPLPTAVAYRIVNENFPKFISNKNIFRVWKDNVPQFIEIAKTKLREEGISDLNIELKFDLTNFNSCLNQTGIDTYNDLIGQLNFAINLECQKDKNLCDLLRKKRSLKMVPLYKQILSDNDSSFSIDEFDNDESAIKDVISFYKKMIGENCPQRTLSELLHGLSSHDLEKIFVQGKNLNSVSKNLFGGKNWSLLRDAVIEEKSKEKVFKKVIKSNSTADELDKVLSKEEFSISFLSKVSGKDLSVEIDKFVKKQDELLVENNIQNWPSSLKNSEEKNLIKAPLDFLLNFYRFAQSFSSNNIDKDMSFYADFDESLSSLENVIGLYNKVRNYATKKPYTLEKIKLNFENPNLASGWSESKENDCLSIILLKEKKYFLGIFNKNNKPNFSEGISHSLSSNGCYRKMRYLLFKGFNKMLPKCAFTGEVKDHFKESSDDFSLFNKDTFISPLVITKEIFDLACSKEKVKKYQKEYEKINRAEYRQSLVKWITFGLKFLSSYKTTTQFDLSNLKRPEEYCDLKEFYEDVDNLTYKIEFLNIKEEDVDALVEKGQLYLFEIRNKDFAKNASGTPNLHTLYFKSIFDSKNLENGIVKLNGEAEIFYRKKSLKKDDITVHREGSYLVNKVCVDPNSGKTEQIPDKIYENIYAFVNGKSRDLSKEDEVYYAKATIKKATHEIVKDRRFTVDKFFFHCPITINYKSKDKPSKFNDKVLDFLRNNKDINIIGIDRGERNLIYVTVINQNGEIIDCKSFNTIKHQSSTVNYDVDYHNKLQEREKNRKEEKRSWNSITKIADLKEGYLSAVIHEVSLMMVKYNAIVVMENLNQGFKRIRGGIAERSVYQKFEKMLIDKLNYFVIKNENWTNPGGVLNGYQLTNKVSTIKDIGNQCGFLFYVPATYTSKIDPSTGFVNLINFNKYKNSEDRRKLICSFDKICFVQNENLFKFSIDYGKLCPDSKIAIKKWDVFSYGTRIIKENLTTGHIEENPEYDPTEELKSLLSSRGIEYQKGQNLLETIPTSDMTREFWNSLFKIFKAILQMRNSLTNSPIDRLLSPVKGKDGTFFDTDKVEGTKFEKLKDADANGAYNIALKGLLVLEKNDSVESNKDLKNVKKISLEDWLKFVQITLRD

The next data set has as its target T3, ZXPB Type V-A Cas (unidentified).
T3 chain: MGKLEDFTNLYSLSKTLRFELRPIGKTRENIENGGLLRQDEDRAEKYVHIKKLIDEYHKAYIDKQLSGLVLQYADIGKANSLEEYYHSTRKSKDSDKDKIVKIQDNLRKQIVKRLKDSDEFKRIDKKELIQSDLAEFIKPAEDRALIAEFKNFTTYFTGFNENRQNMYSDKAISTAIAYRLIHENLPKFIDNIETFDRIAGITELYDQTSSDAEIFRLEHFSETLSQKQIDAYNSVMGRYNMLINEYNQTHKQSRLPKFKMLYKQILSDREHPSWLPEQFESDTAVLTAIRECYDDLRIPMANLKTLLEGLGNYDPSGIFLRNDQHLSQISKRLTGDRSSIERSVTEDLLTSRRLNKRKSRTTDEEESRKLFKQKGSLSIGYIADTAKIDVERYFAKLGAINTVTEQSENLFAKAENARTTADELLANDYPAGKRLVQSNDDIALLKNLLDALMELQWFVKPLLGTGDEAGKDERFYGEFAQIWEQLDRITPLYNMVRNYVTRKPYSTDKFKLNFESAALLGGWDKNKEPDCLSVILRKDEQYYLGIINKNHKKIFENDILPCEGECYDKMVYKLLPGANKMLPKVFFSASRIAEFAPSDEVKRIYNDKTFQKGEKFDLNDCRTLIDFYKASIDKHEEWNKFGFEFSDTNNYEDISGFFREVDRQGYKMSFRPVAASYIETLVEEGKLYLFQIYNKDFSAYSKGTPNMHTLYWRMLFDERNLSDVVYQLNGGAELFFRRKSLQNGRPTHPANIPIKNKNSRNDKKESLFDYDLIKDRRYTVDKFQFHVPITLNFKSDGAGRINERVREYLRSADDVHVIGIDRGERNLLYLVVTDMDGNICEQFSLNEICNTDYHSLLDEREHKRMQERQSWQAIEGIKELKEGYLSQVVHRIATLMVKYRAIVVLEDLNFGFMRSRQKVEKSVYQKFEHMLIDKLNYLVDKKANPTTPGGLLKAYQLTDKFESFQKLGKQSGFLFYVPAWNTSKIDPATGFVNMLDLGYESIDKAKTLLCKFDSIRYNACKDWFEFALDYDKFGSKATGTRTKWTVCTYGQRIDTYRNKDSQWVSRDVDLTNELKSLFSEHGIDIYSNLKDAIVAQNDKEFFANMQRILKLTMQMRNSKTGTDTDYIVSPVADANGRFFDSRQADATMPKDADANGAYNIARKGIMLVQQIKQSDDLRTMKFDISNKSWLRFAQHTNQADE

B1: ZJHK crRNA EGFP-g1 ; EGFP-g1 target (ssRNA ; dsDNA)
RNA: CUUUGAAAGAAUAUAAUUUCUACUGAAAGUGUAGAUCGUCGCCGUCCAGCUCGACCAGG
DNA 1: TTTACGTCGCCGTCCAGCTCGACCAGG
DNA 2: CCTGGTCGAGCTGGACGGCGACGTAAA
Take B1: in the data set with ZJHK Type V-A Cas, the activity was more than 20 % EGFP KO.

B2: ZZGY crRNA EGFP-g1 ; EGFP-g1 target (ssRNA ; dsDNA)
RNA: UCUAAAGCUCUUUAAGAAUUUCUACUUUCGUAGAUCGUCGCCGUCCAGCUCGACCAGG
DNA 1: TTTACGTCGCCGTCCAGCTCGACCAGG
DNA 2: CCTGGTCGAGCTGGACGGCGACGTAAA
B2: in the data set with ZZGY Type V-A Cas, the activity is more than 20 % EGFP KO.

B3: ZXPB crRNA EGFP-g1 ; EGFP-g1 target (ssRNA ; dsDNA)
RNA: GGCUAUAAAAGCCAUAUAAUUUCUACUAUUGUAGAUCGUCGCCGUCCAGCUCGACCAGG
DNA 1: TTTACGTCGCCGTCCAGCTCGACCAGG
DNA 2: CCTGGTCGAGCTGGACGGCGACGTAAA
Turning to B3, in the data set with ZXPB Type V-A Cas, the activity is more than 20 % EGFP KO.
